Residue numbers refer to the chain shown, from its start. Names may count otherwise.
T1: His-tagged cynomolgus 4-1BB protein (cynomolgus, UniProt A9YYE7 24-186)
T1 construct: Coated on ELISA plates at 2 µg/ml; also called Cyno 4-1BB; soluble cynomolgus 4-1BB; not shown: His tag
T1 sequence: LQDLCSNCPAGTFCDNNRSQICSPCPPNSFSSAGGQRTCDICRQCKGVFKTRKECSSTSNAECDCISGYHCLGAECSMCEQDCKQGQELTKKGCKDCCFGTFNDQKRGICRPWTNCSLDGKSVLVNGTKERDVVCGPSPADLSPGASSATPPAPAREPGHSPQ

B1: VV02-1LP-238 (Fc fusion, not shown: a dimerising Fc or GST; small tags and cut ends)
VHH: QVQLVESGGGLVQAGGALRLSCAASGFTLDYSAIGWFRQAPGKEREGVLCISSSGDVTIYADSVKGRFTISRDNAKNTVYLQMNSLKPEDTAVYYCVAPRICSTYSSDDYWGQGTQVTVSS
notes: Llama nanobody tested as fusion with human IgG1 Fc (N297A)
B2: VV02-1LP-422 (Fc fusion, not shown: a dimerising Fc or GST; small tags and cut ends)
VHH: B1 VHH with V2L, A14P, A17S, D30A, Y31D, S32Y
notes: as for B1
B3: VV02-1SP (1)-168 (Fc fusion, not shown: a dimerising Fc or GST; small tags and cut ends)
VHH: QVQLVESGGGLVQPGGSLRLSCAASGFTFSSYAMSWARQAPGKDFEWVSYIYSDGNTYYADSVKGRFTISRDNAKNTVYLQMNSLKPEDTAVYYCATWHTLRVGVWDEYDYWGQGTQVTVSS
notes: as for B1
B4: VV02-1LP-263 (Fc fusion)
VHH: EVQLVESGGGLVQPGGSLRLSCAASGFTFSSSAMSWARQTPGKGFEWVSGIYSDGSTYYTDSVKDRFTISRDNAKNTVYLQMNSLKPEDTAVYYCATWGTLRFGVWAEYDHWGQGTQVTVSS
notes: Llama nanobody tested as fusion with human IgG1 Fc (N297A); not shown: Human IgG1 Fc fragment with N297A, fused at the C-terminus of the VHH

What was measured:
[1] = target: T2, human 4-1BB expressed on cells (human, UniProt Q07011 24-255); experiment: flow cytometry competition with biotinylated human 4-1BB ligand on CHO-K1/human 4-1BB cells
T2 construct: whole, on cells; also called CHO-K1/hu4-1BB; cell surface human 4-1BB
Method: CHO-K1 cells overexpressing human 4-1BB were incubated with biotinylated human 4-1BB ligand (0.3 μg/ml) in the presence of serial diluted anti-41BB nanobodies for 1 h at 4° C. with Ref mAb as the reference antibody. Then, cells were incubated with Alexa Fluor 633-conjugated streptavidin. Binding was measured with an Agilent flow cytometer. As shown in FIG. 2 and Table 3, all of the tested nanobodies could block 4-1BB ligand binding to 4-1BB in a concentration-dependent manner while Ref mAb had no such effect.

[2] = target: T2, human 4-1BB expressed on cells; experiment: cell-based or functional assay
[3] = target: T3, His-tagged human 4-1BB protein (human, UniProt Q07011 24-186); experiment: ELISA, coated His-tagged 4-1BB, anti-human IgG-HRP
T3 construct: Coated on ELISA plates at 2 µg/ml; also called hu4-1BB; soluble human 4-1BB; not shown: His tag
Method: (§1) His-tagged 4-1BB was coated at 2 μg/ml overnight and then blocked by 2% BSA in PBS. Serially diluted anti-4-1BB nanobodies were incubated with the coated antigen for 1h at room temperature with a reference antibody “Ref mAb”. The resulting plates were washed with PBS/T and incubated with goat anti-human IgG-HRP for 1 h at room temperature. The plates were developed with TMB substrate and analyzed by spectrophotometer at OD 450 nm.

[4] = target: T1, His-tagged cynomolgus 4-1BB protein; experiment: ELISA, coated His-tagged 4-1BB, anti-human IgG-HRP
Method: as §1

T2 sequence (Q07011 24-255): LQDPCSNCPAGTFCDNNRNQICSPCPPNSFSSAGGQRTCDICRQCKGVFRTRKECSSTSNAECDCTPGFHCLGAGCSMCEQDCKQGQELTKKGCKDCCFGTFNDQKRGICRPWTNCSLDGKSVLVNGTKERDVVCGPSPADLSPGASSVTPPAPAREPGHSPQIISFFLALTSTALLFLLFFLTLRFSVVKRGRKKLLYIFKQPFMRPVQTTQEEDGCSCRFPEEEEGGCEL

Binder	IC50 [1] [nM]	EC50 (nM) in Jurkat-41BB NFκB reporter assay [2] [nM]	EC50 [3] [nM]	EC50 [4] [nM]
B1	1.88	0.008	9.12	26.5
B2	1.48	0.013	0.37	6.94
B3	0.387	0.002	> 30	0.06
B4	0.566	0.017	> 30	0.04

Reference: US20240383993A1 (LANOVA MEDICINES, published 2024)
